Non-standard residues stand in square brackets, D forms with d. No end group written: not given here. Tyr(3-I) = N[C@@H](Cc1ccc(O)c(I)c1)C(=O)O

The text below walks through data of publication PMC5959238 (Genes & Development, 2018).

The target of assay [1] is T1, cap-binding complex (CBC): preformed complex of CBP80–CBP20 (human, UniProt Q09161;P52298, Δ2–23).
T1 sequence 1: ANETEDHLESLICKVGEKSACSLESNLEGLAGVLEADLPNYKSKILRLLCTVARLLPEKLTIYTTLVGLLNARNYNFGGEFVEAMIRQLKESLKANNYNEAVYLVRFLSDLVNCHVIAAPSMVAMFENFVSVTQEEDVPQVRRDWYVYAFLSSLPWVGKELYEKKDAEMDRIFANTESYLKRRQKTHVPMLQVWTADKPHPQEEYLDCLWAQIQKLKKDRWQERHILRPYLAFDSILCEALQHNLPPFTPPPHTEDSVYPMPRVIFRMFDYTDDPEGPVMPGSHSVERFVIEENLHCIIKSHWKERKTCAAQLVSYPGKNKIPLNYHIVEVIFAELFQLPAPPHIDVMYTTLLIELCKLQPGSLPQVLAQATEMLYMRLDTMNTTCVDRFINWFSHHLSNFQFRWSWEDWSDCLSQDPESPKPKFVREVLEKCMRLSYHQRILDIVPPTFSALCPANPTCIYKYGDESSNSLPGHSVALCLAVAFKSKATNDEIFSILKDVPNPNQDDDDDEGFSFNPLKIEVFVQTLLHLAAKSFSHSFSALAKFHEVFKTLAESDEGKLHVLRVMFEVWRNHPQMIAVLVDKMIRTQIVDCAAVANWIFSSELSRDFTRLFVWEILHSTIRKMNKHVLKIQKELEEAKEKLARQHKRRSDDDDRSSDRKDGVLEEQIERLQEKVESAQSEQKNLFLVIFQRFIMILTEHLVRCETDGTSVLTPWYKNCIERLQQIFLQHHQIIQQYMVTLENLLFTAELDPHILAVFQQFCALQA
T1 sequence 2: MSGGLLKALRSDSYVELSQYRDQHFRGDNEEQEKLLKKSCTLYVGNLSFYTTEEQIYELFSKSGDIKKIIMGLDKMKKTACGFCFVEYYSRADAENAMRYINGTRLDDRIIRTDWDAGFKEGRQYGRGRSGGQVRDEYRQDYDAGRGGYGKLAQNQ
The assay is described as follows: fluorescence polarisation. On the technique in general: Fluorescence polarisation rises when a labelled molecule tumbles more slowly, as on binding a larger partner.

Assay [2] deals with T2, HIS-TEV-tagged CBP80(Δ2–23) (human, UniProt Q09161 24-790, Δ2–23).
T2 sequence: T1 sequence 1
The experiment in a line: crystal structure.

The target of assay [3] is T2, HIS-TEV-tagged CBP80(Δ2–23). The assay is described as follows: pull-down.
Assay [4] has as its target T1, cap-binding complex (CBC): preformed …. The experiment in a line: crystal structure.

B1: PGC-1β peptide, amino acids 1009–1021 (peptide)
peptide: MDFDSLLKEAQQS
With B1, the binding result in assay [1] is listed as “binds”.

B2: PGC-1β-10G (peptide)
peptide: MDFDSLLKEGQQS
For the molecule B2, the binding result in assay [1] is “binds”.

B3: CBP20 (natural protein)
chain: T1 sequence 2
Regarding B3, in assay [2], the binding result is “binds”.

B4: PGC-1β amino acids 999–1023 (domain or fragment)
chain: PASGKSKYEAMDFDSLLKEAQQSLH
As to B4, the binding result in assay [3] is listed as “binds”.

B5: synthetic PGC-1β peptide spanning amino acids 994–1023 (peptide)
peptide: Ac-SEEALPASGKSK[Tyr(3-I)]EAMDFDSLLKEAQQSLH
modifications: not fully specified
Regarding B5, the binding result in assay [4] and in assay [2] was “binds” in each case.
